# Columns and labels:
# Format in all cases: binding
# [1] = Probe fluorescence ratio response to palmitic acid relative to ADIFAB2; conditions: response relative to ADIFAB2
# Text: (§1) In an alternate preferred embodiment, the protein is rI-FABP that has Ala substituted for Leu at position 72 (rI-FABP-L72A) with the resulting probe named ADIFAB2. […] Other probes useful in embodiments of the invention are shown in Tables 1-6 and are also described in U.S. application Ser. No. 11/085,792, filed Mar. 21, 2005 which is incorporated herein by reference. The indicated substitutions are with reference to the ADIFAB protein of SEQ ID NO: 2.
# (§2) ADIFAB2 also has an altered spectral response, making it especially useful for measurements of FFAu in blood samples (Apple et al, Clinical Proteomics, (2004) 1:41-44, U.S. patent application Ser. No. 10/670,958). The wavelengths at the maximum intensities emitted by these fluorescently-labeled I-FABP's in the absence of FFA is about 420 to 480 nm. The emission wavelengths at the maximum intensities emitted by these fluorescently-labeled I-FABP's with FFA bound are between about 495 to 580 nm. Experiments typically involve measuring the fluorescence response within both emission maxima or at wavelengths for which the effect of interfering molecules such as hemoglobin can be eliminated as described in U.S. application Ser. No. 10/670958 and PCT/US2004/030521 and the calculation of the ratio ‘R’ of the two fluorescence intensities. The baseline value for this ratio, measured in the absence of analyte, is designated R0.
# (§3) The intensity ratio (“R” value) is determined as follows. The ratio is calculated using the following formula: R=Fλ1/Fλ2 wherein, Fλ1 is the measured fluorescence intensities (intensity of sample with probe present minus intensity of sample without probe present) at wavelength 1 and Fλ2 is the measured fluorescence intensities (intensity of sample with probe present minus intensity of sample without probe present) at wavelength 2. Then, for a given probe, ΔR, the difference in R value between the measurement in the presence of the test compound (agent) and in the absence of the test compound (agent), is calculated as follows: ΔR=R+agent−R0 In some embodiments, the ΔR value may then be compared to some reference, for example, an agent with a known affinity for a given probe, by ΔR/ΔRreference. Measurements of fluorescence intensities are obtained using standard techniques.
# [2] = Probe fluorescence ratio response to oleic acid relative to ADIFAB2; conditions: response relative to ADIFAB2
# Text: as §1, §2, §3
# [3] = Probe fluorescence ratio response to linolenic acid relative to ADIFAB2; conditions: response relative to ADIFAB2
# Text: as §1, §2, §3
# [4] = Probe fluorescence ratio response to linoleic acid relative to ADIFAB2; conditions: response relative to ADIFAB2
# Text: as §1, §2, §3
# [5] = Probe fluorescence ratio response to arachidonic acid relative to ADIFAB2; conditions: arachidonic acid; response relative to ADIFAB2
# Text: as §1, §2, §3
Molecule,DR/DR PA [1],DR/DR OA [2],DR/DR LNA [3],DR/DR LA [4],DR/DR AA [5]
"11G, 72A (protein, listed as Rattus norvegicus, PEPTIDE (1)...(131) wild-type rat intestinal fatty acid binding protein) AFDGTWKVDRGENYEKFMEKMGINVVKRKLGAHDNLKLTITQEGNKFTVKESSNFRNIDVVFELGVDFAYSAADGTELTGTWTMEGNKLVGKFKRVDNGKELIAVREISGNELIQTYTYEGVEAKRIFKKE",0.61,0.62,0.67,0.70,0.63
"102G, 72A (protein, listed as Rattus norvegicus, PEPTIDE (1)...(131) wild-type rat intestinal fatty acid binding protein) AFDGTWKVDRNENYEKFMEKMGINVVKRKLGAHDNLKLTITQEGNKFTVKESSNFRNIDVVFELGVDFAYSAADGTELTGTWTMEGNKLVGKFKRVDNGKEGIAVREISGNELIQTYTYEGVEAKRIFKKE",0.36,0.65,0.38,0.78,0.63
"102H, 72A (protein, listed as Rattus norvegicus, PEPTIDE (1)...(131) wild-type rat intestinal fatty acid binding protein) AFDGTWKVDRNENYEKFMEKMGINVVKRKLGAHDNLKLTITQEGNKFTVKESSNFRNIDVVFELGVDFAYSAADGTELTGTWTMEGNKLVGKFKRVDNGKEHIAVREISGNELIQTYTYEGVEAKRIFKKE",0.37,0.66,0.63,0.65,0.52
"126L, 72A (protein, listed as Rattus norvegicus, PEPTIDE (1)...(131) wild-type rat intestinal fatty acid binding protein) AFDGTWKVDRNENYEKFMEKMGINVVKRKLGAHDNLKLTITQEGNKFTVKESSNFRNIDVVFELGVDFAYSAADGTELTGTWTMEGNKLVGKFKRVDNGKELIAVREISGNELIQTYTYEGVEAKLIFKKE",0.38,0.55,0.66,0.64,0.66
"126H, 72A (protein, listed as Rattus norvegicus, PEPTIDE (1)...(131) wild-type rat intestinal fatty acid binding protein) AFDGTWKVDRNENYEKFMEKMGINVVKRKLGAHDNLKLTITQEGNKFTVKESSNFRNIDVVFELGVDFAYSAADGTELTGTWTMEGNKLVGKFKRVDNGKELIAVREISGNELIQTYTYEGVEAKHIFKKE",0.32,0.43,0.46,0.46,0.20
"126M, 72A (protein, listed as Rattus norvegicus, PEPTIDE (1)...(131) wild-type rat intestinal fatty acid binding protein) AFDGTWKVDRNENYEKFMEKMGINVVKRKLGAHDNLKLTITQEGNKFTVKESSNFRNIDVVFELGVDFAYSAADGTELTGTWTMEGNKLVGKFKRVDNGKELIAVREISGNELIQTYTYEGVEAKMIFKKE",0.29,0.24,0.28,0.31,0.32
"126I, 72A (protein, listed as Rattus norvegicus, PEPTIDE (1)...(131) wild-type rat intestinal fatty acid binding protein) AFDGTWKVDRNENYEKFMEKMGINVVKRKLGAHDNLKLTITQEGNKFTVKESSNFRNIDVVFELGVDFAYSAADGTELTGTWTMEGNKLVGKFKRVDNGKELIAVREISGNELIQTYTYEGVEAKIIFKKE",0.38,0.34,0.43,0.43,0.45
"126F, 72A (protein, listed as Rattus norvegicus, PEPTIDE (1)...(131) wild-type rat intestinal fatty acid binding protein) AFDGTWKVDRNENYEKFMEKMGINVVKRKLGAHDNLKLTITQEGNKFTVKESSNFRNIDVVFELGVDFAYSAADGTELTGTWTMEGNKLVGKFKRVDNGKELIAVREISGNELIQTYTYEGVEAKFIFKKE",0.34,0.43,0.53,0.51,0.52
"14A, 72A (protein, listed as Rattus norvegicus, PEPTIDE (1)...(131) wild-type rat intestinal fatty acid binding protein) AFDGTWKVDRNENAEKFMEKMGINVVKRKLGAHDNLKLTITQEGNKFTVKESSNFRNIDVVFELGVDFAYSAADGTELTGTWTMEGNKLVGKFKRVDNGKELIAVREISGNELIQTYTYEGVEAKRIFKKE",0.24,0.36,0.56,0.56,0.53
"126E, 72A (protein, listed as Rattus norvegicus, PEPTIDE (1)...(131) wild-type rat intestinal fatty acid binding protein) AFDGTWKVDRNENYEKFMEKMGINVVKRKLGAHDNLKLTITQEGNKFTVKESSNFRNIDVVFELGVDFAYSAADGTELTGTWTMEGNKLVGKFKRVDNGKELIAVREISGNELIQTYTYEGVEAKEIFKKE",0.21,0.30,0.32,0.34,0.25
"11Y1, L72A (protein, listed as Rattus norvegicus, PEPTIDE (1)...(131) wild-type rat intestinal fatty acid binding protein) AFDGTWKVDRYENYEKFMEKMGINVVKRKLGAHDNLKLTITQEGNKFTVKESSNFRNIDVVFELGVDFAYSAADGTELTGTWTMEGNKLVGKFKRVDNGKELIAVREISGNELIQTYTYEGVEAKRIFKKE",0.25,0.16,0.33,0.32,0.49
"126D, 72A (protein, listed as Rattus norvegicus, PEPTIDE (1)...(131) wild-type rat intestinal fatty acid binding protein) AFDGTWKVDRNENYEKFMEKMGINVVKRKLGAHDNLKLTITQEGNKFTVKESSNFRNIDVVFELGVDFAYSAADGTELTGTWTMEGNKLVGKFKRVDNGKELIAVREISGNELIQTYTYEGVEAKDIFKKE",0.37,0.64,0.56,0.59,0.44
"11Y1, 72A (protein, listed as Rattus norvegicus, PEPTIDE (1)...(131) wild-type rat intestinal fatty acid binding protein) AFDGTWKVDRYENYEKFMEKMGINVVKRKLGAHDNLKLTITQEGNKFTVKESSNFRNIDVVFELGVDFAYSAADGTELTGTWTMEGNKLVGKFKRVDNGKELIAVREISGNELIQTYTYEGVEAKRIFKKE",0.30,0.16,0.31,0.33,0.52
"126V, 72A (protein, listed as Rattus norvegicus, PEPTIDE (1)...(131) wild-type rat intestinal fatty acid binding protein) AFDGTWKVDRNENYEKFMEKMGINVVKRKLGAHDNLKLTITQEGNKFTVKESSNFRNIDVVFELGVDFAYSAADGTELTGTWTMEGNKLVGKFKRVDNGKELIAVREISGNELIQTYTYEGVEAKVIFKKE",0.34,0.33,0.42,0.45,0.42
"126A, 72A (protein, listed as Rattus norvegicus, PEPTIDE (1)...(131) wild-type rat intestinal fatty acid binding protein) AFDGTWKVDRNENYEKFMEKMGINVVKRKLGAHDNLKLTITQEGNKFTVKESSNFRNIDVVFELGVDFAYSAADGTELTGTWTMEGNKLVGKFKRVDNGKELIAVREISGNELIQTYTYEGVEAKAIFKKE",1.22,1.38,1.36,1.32,1.27

# — US20060257938A1, “Method of screening for drugs that block ligand binding to a lipid binding protein” (priority 2005, published 2006)
